# Data as given in patent US7125658B2, “Small protein that interacts with a ribonucleotide reductase subunit and uses thereof” (The Trustees of Columbia University in the City of New York, priority 1998, dated 2006).
# T1: yeast Rnr1p (Saccharomyces cerevisiae, UniProt P21524)
# T1 construct: made in house; host or cells: E. coli BL21 (DE3), pET3a
# T1 sequence (P21524 1-888): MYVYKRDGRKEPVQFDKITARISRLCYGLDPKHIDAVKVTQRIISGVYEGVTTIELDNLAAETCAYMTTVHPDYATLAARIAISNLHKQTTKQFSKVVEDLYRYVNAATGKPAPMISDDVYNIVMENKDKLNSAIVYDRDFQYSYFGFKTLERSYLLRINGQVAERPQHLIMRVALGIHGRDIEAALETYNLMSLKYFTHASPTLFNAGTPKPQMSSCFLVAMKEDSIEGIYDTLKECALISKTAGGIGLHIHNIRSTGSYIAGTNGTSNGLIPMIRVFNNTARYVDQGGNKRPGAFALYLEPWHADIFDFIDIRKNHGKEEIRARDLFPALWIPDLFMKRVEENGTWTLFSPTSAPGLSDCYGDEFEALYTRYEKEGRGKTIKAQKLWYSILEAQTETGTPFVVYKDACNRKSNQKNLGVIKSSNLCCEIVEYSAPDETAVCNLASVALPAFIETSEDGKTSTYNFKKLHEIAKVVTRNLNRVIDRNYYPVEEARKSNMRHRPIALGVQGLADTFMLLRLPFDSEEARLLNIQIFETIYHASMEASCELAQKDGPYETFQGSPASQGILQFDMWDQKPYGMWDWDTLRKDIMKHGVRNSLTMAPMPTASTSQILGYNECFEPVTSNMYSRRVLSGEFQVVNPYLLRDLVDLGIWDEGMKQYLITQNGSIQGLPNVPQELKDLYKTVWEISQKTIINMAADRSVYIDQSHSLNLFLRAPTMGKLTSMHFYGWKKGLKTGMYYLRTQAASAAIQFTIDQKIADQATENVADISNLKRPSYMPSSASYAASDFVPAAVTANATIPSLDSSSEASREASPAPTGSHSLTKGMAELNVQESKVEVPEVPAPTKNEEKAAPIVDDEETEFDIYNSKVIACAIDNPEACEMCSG
# Target: T1, yeast Rnr1p
# Assay: sucrose gradient centrifugation of Rnr1p with Sml1p
# Type: binding
# Details: 500 μg Rnr1p, 90 μg Sml1 protein, 0.1 mM dTTP
# Protocol: FIG. 11 Sucrose gradient centrifugation of yeast Rnr1p in the absence or in the presence of dTTP, with or without Sml1p. Sedimentation (from the right to the left) was performed as described in Materials and Methods. Catalase (s20,w=11.4 S) sedimented in fraction 14 (arrow). Thick line, Rnr1 protein sedimented alone without dTTP or Sml1p. The two peaks represent the dimer (fraction 21) and monomer (fraction 25) positions in the gradient. Hatched line, Rnr1p sedimented in the presence of dTTP. Most of the material now sedimented as tetramers (fraction 5) or dimers (fraction 21). Note that the small peak sedimenting at fraction 26 represents an impurity in the Rnr1p preparation (the band just below the R1 band in the gel insert). The sedimentation of this material is not affected by dTTP. […]
# Sucrose gradient centrifugation. […] Aliquots of each fraction were removed for spectrophotometric assay of catalase activity (20); protein concentration as determined by the Bradford method (21); or SDS-PAGE analysis.
# Interaction between yeast Rnr1 protein and Sml1 protein assayed by sucrose gradient centrifugation. […] To test if Sml1p binding to the Rnr1p might interfere with Rnr1p dimer formation and thereby inhibit RNR activity, we preincubated Rnr1p and Sml1p in the presence of the allosteric effector dTTP; we then analyzed the mixture on a sucrose gradient (FIG. 11). […]
molecule,measurement,value
"Sml1p: 104 amino acid yeast protein encoded by YML058w (SML1) that binds Rnr1 and inhibits ribonucleotide reductase; recombinant, expressed in E. coli (protein) MQNSQDYFYAQNRCQQQQAPSTLRTVTMAEFRRVPLPPMAEVPMLSTQNSMGSSASASASSLEMWEKDLEERLNSIDHDMNNNKFGSGELKSMFNQGKVEEMDF",effect on Rnr1p monomer/dimer equilibrium,did not influence the monomer/dimer equilibrium
